The source of these data is the nanobody polyreactivity screen of Harvey et al. (2022).

The nature of this series: yeast display, Sf9 membrane polyspecificity reagent, FACS + sequencing; frameworks hold sequencing errors. In a few lines: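 Using colony PCR, genes from sorted yeast display clones were amplified, then sequenced on MiSeq at 2 × 250 and filtered by CDR length. The clones had been stained with 10% biotinylated, detergent-solubilized Sf9 membrane reagent for 1 hour at 4 °C and sorted by FACS into low and high (top ~1%) gates on anti-HA and streptavidin fluorescence. Polyreactivity labels come from the gate of origin.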
“QVQHVESGRGLVQAGGSLRLSCAASGRIFQYYTMGRYRQAPGKERELVAAISRSGSSTYYADSVKGRFTISRDNAKNTVYLQMNSLKPEDTAVYYCAAVSEYYKGYDYWGQGTQVTVSS”: the “polyreactivity (PSR sort gate)” value is listed as “high polyreactivity”.
Then “QVQHVESGVGLVQAGGSLRLSCAASGSTFVPYAMGWYRQAPGKDRELVAAISSAGSTNYADSVKGRFTISRDNAKNTVYLQMNSLKPEDTAVYYCARDIQDTYEFDYWGQGTQVTVSS”, with “low polyreactivity”.
As for “QVQHVESGVGLVQAVGSLRLSCAASGLTIDYNAMGWDRQAPVKERELVAAISWSGGSTYYADSLKGRFTISRDNAKNTVYLQMNSLKPEDNAVYYCNALPHIVIGGIICYEYWGQGTQVTVSS”, the “polyreactivity (PSR sort gate)” value is “high polyreactivity”.
Then “QVQHVESRGGIVQAGGSLRLSCAASGFILYFNAMGWYRQAPGKERELVAAITSDGGSTYYADSVKGRFTISRDNAKNTVYLQMNSLKPEDTAVYYCAADASTWYTEEYWGQGTQVTVSS”, with “low polyreactivity”; and “QVQHVESRGGLLQAGGSLRLSCAASGRTLSFYGMGWYRQPPGKERELVAAISSSGSRTYYADSVKGRFTISRDNAKNTVYLQMNSLKPEHTAVYYCNALRIYHHYEYDYWGQGTQVTVSS”, with “high polyreactivity”; and “QVQHVESRGGLVQAGGSLRLSCAASGLILSGYTMGWYRPAPGKERELVAAISRSGGSTYYADSVKGRFTISRDNAKNTVYLQMNSLKPEDTAVYYCAKVPIYRYGVWAMNYWGQGTQVTVSS”, with “high polyreactivity”.
The same measure for “QVQHVESRGGLVQAGGSLRLSCDASGSTFVTYAMGWYRQAPGKERELVAAISRSGGSTYYADSVKGRFTISRDNAKNTVYLQMNSLKPEDTAVYYCAARDGYGATGHDYWGQGTQVTVSS”: “low polyreactivity”.
On to “QVQHVESVGCLVQAGGTLRLSCASSVRTFLWYTMGWYRQAPGKKRELVATITSGGRTNYADSVKGRFTISRDNAKNTVYLQMNSLNPEDTAVYYCARLGAYTGRYDYWGQGTQVTVSS”, for which the “polyreactivity (PSR sort gate)” value was “high polyreactivity”.
Turning to “QVQHVESVGGLVQAGGRLRLSSAASGSIFSYNAMGWYRQAPVKERQLVARITRGGDGTYYADSVMVRFTISRDNAKNTVYLQMNSLKPEDTAVYYCAGTPYWYHLRVEGGYWGQGTQVTVSS”, the “polyreactivity (PSR sort gate)” value is reported as “low polyreactivity”.
With “QVQHVESVGGLVQAGGSLRLSCAASGSTFARYVMGWYRQAPGKEWELVAVISRSGGSTYYADSVKGRFTISRDNAKNTVYLQMNSLKPEDTAVYYCNARSSNYWWYYYWGQGTQVTVSS”, the “polyreactivity (PSR sort gate)” value is “high polyreactivity”.
Then “QVQHVESWGGIVQARGSLRLSCAASGSTFSYNALGWYRQPPGKERELVAALTCSGASTYYAYSVKGRFTISRDKAKNTVYLQLSSMNPDDTAVYYCNAPDGPGPNAYYEFDYWGQGTQVTVSS”, with “low polyreactivity”; and “QVQHVQTLGGLDQAGGSLRLSFSDSGSNFGYYSIVLYRLAPGKERELVAAITGSGGGTYYADSVKGRLTISRDNAKNTVYLQMNSLKPEDTAVYYCAKDRNYRIYWGEYWGHGTQVTVSS”, with “low polyreactivity”.
Then “QVQIEESGGGLVQAGGSLRLSCAASGFIFRPYAMGWYRQAPGKERELVAAITGGGSTYYADSVKGRFTISRDNAKNTVYLQMISLKPEDTAVYYCNADRRRRSGGFAGWHFQRNDYWGQGTQVTVSS”, with “low polyreactivity”; and “QVQIEESGGGLVQAGGSLRLSCAASGRTFYANVMGWSRQAPGIEWELVAAITYSGGSTYYADSVKGRFTISRDNAQNTVYVLMNCLKQEDTADYYCAADNVYTFYYWGQGTLVTVSS”, with “low polyreactivity”.
“QVQIEESGGGLVQAGGSLRLSCAASGSTFGINAMGWSRQAPGKERELVAAISSRGGSTYYADSVKGRFTISRDNAQNTVYLQMNSLKPADTALYSCNRRGWSRTHQYDYWGQGTQVTVSS”: the “polyreactivity (PSR sort gate)” value was “high polyreactivity”.
“QVQIGESGGGLVQAGGSLRLSCAASGRTFGLYAMGWYRQAPGKERELVAAITISGGITHYADSVKGRFTISRDIAKNSVYLQMNSLKPEDTAVYYCAAEPPGFRTSGVGYWGQGTQVTVSS”: the “polyreactivity (PSR sort gate)” value is listed as “low polyreactivity”.
Take “QVQIVDSGGGLVQAGGSLRISCAASGRIFAGYGKGWYRQAPGKERELVAAISSGGSTYYADSVKGRFTISRDNAKNTVYLQMNSLKPEDTAVYYCATDGQSVPDDYYQNVDYDYWGQGTQVTVSS”: the “polyreactivity (PSR sort gate)” value is reported as “low polyreactivity”.
For the sequence “QVQIVDSGGGLVQAGGSLRLSCAASGLIIGPYAMGWYRQAPGKERELVAAITSGTTTYYADSVKGRFTISRDNAKNTVYLQMNSLKPEDTAVYYCAAYWPVNSQPIQIGYLYDYWGQGTQVTVSS”, the “polyreactivity (PSR sort gate)” value was “low polyreactivity”.
In the case of “QVQIVDSGGGLVQAGGSLRLSCAASGRIIPANAMGWYRQAPGKERELVAAIDYDGGSTYYADSVKGRFTISRDNAKNTVYLQMNSLNPEVTAVYYCAADFYDYEGSYYDYYWGQGTQVTVSS”, the “polyreactivity (PSR sort gate)” value is recorded as “high polyreactivity”.
The same measure for “QVQIVDSGGGLVQAGGSLSLSCAASGSTFRGYAMGWYRQAPGKERELVAAITGSGDRTRYADSVKGRFTISRDNAKNTVYLQKNSLKPADTAVNYCAKVWPHWAYYSWGQGTQVTLSS”: “high polyreactivity”; for “QVQIVESGAGLVHAGGSLRISCAASGRIFWIYAMGWYRQAPGKESELVATITGSGGSTYYADSVKGRFTISRDNAKKTVYLQMNSLKPEVTAVYYCAARYPVSGGYDYWGQGTQVTLSS”: “low polyreactivity”.
Then “QVQIVESGAGLVQAGGSLRISCAPSGRTFLYNAMGWYIQAPGKESELVAAIDGGTGSTYYADSVKARFTISRDNAKNTVYLQMIRLNPEDTAGYYCAAETYGVGYPVNYDYWGQGTQVTVSS”, with “low polyreactivity”; and “QVQIVESGGGIVQAGGSLRLSCAASGIIFSGYVMGWYRQAPGKERQLVAAISSGGSKYYADSVKGRFTISRDNAKNTFYLQINSLKPEDTEVYYCAAAGYWTLGYGYWGQGTQVTVSS”, with “low polyreactivity”; and “QVQIVESGGGLDQAGGSLRLSCAASGRTLGYYAMVWYRQAPGIERELVAAISRTGGRTYYADSVKGRFTISLDNAKNTVYLQMNSLKPEDTAVYYCAVVAPDGYDFYYWGQGTQVTVSS”, with “high polyreactivity”.
With “QVQIVESGGGLFQAGGILRLSCAASGLTLFRDAMGWYRQAPGKERELVAAIDYGGGTYYADSVKGRFTISRDNAKTTVNLQMNRLKVEDTAVYYCAVEPEYKYYEGDFWGQGTQVTVSS”, the “polyreactivity (PSR sort gate)” value was “low polyreactivity”.
The same measure for “QVQIVESGGGLFQAGGRLPLSCAASGSSFKINDMGWYRHAPGKERELVATITWSTGTTYYADSVKGLFTISRYNAKNTVYLKMNSLKPEYTAVYYCAADYCSYGYVLFDYWGQGTQVTVSS”: “low polyreactivity”; for “QVQIVESGGGLVQAGGILRLSCAASGITFTSYAMGWYRQAPGKEREFVAAISWSGDRTYYADSVKGRFTISRDNAKNTVYLQMICLKPEETAVYYCNAYIYFSAYDPDYYWGQGTQVTVSS”: “high polyreactivity”.
As for “QVQIVESGGGLVQAGGSLRFSCAASGRIFRGYDMGWYRQAPGKEREFVAAISWSGGNTYYADSVKGRFTISRDNAKNTVYLLMNSLNPEDTAVYYCAARVFGSHFYYRTRPYDYWGQGTQVTVSS”, the “polyreactivity (PSR sort gate)” value was “high polyreactivity”.
The same measure for “QVQIVESGGGLVQAGGSLRISCAASGSIFIYYAMGWYRQAPGKDRELVAAISNGGSTNYADSVKGRFTISRDNANNTVYLLMNRLTPEDTSVFYCNKQYWYWSNTLTIRDYWGQGTQVTVSS”: “low polyreactivity”.
Then “QVQIVESGGGLVQAGGSLRLICAASGIIFEGYAMGWYRQAPGKERELVAAISQSGGSTRYADSVKGRFTISRDNATNTVYLQMNSLKPEDTAVYYFAKEVWNWGPYYYWGQGTQVTVSS”, with “low polyreactivity”; and “QVQIVESGGGLVQAGGSLRLICAASGRILSANAMGWYRQAPGKERELVAAITYSGDNTYYADYVKGRFTISRDNANNTVYLQMNSLKPEDTAVYYCAREFQVDGGEEDYWGQGTQVTVSS”, with “low polyreactivity”.
The same measure for “QVQIVESGGGLVQAGGSLRLICAASGSIFFYYAMGWYRQAPGKEWELVAAITFTGGSTYYADSVKGSFTISRDNAKNTVYLQMTSLKPEDTAVYYCAADWYYGFEYEYRGQGTQVTVSS”: “high polyreactivity”; for “QVQIVESGGGLVQAGGSLRLRCADSGRIFVRYAMGGYIQSPGKDRELVAGITSGSRTNYADSVKGRFTISRDNAKNTVYLQMNSLKPEDTAVYYCAKRYLRYSRLGNYWGQGTQVTVSS”: “high polyreactivity”.
For the sequence “QVQIVESGGGLVQAGGSLRLSCAASGFIFFAYAMGWYRQAPGKERELFAAISRTGGSTYYADSVKGRFTISRDNAKNTVYLQMNSLKPEDTAVYYCAADGGYYGRDYWGQGTQVTVSS”, the “polyreactivity (PSR sort gate)” value was “high polyreactivity”.
The same measure for “QVQIVESGGGLVQAGGSLRLSCAASGFTFVYYAMGWYRQAPGKERELVAAISKRGGSTYYADSVKGRFTISRDNAKNTVYLQMNSLKPEDTAVYYCNAGYGRWQRHDYWGQGTLVTVSS”: “high polyreactivity”; for “QVQIVESGGGLVQAGGSLRLSCAASGFTFWNYAMGWYRQAPGKERELVATITRSGGRTYYADSVKGRFTISRDHAKNTGYLQMNSLIPEDTAVYYCSARVWPVVYSWGYNYLGQGTQVTVSS”: “high polyreactivity”; for “QVQIVESGGGLVQAGGSLRLSCAASGGIFEINVLGWYRQAPGKERELVAAISSRGGSTYYADSVKGRFTISRDNAKNTVYLQMNSLKPEDTAVYYCARRYRPKYGYWGQGTQVTVSS”: “high polyreactivity”.
The same measure for “QVQIVESGGGLVQAGGSLRLSCAASGIIFVRYDIGWYRPAPGKERELVAAISWSGGRTYYADSVKGRFTISRDNAKNTVYLQMNSLKPEDTEVYYCNAKGSYWWYQKDYWGQGTQVTVSS”: “high polyreactivity”; for “QVQIVESGGGLVQAGGSLRLSCAASGITFYGYAMGWYRQAPGKERELVAVITSSRSSTYYADSVKGRFTISRDNAKNTFFLQMNSLKPEDTEVYYCNPRPGRRSLRSRTYDYWGQGTQVTVSS”: “high polyreactivity”; for “QVQIVESGGGLVQAGGSLRLSCAASGLIFVVYAMGWNRQATGIERELVADISSVGRTSYADSVKGSFTISRDNAKNNVYLQMNSLKPEDTAVYYCNAYPVFNQYYCWRYDYLGQGTQVTVSS”: “low polyreactivity”.
For “QVQIVESGGGLVQAGGSLRLSCAASGLIFYAYAMGWYRQAPGKERELVAAMSYSGGSTYYADSVKGRFTISRDLAKNTVYLQMNSLKPEDTAVYYCAADDGISTYEYWGQGTQVTVSS”, the “polyreactivity (PSR sort gate)” value was “high polyreactivity”.
